The text below walks through data of article PMC6300978 (Chemico-biological interactions, 2015).

For orientation: Km means the substrate concentration at which the rate is half of its maximum. A word on the Vmax: it is the top rate of the reaction or transport when substrate is in excess.

For data set [1] the following is noted: probe reaction for UGT1A1; cited from earlier work.
The nature of data set [2]: Chemical inhibition of GA glucuronidation. The note with it: GA 2 µM, M2 formation.
In another data set the test system is UGT1A8. The note with it: mycophenolic acid as substrate of UGT1A8; cited from earlier work.
Substrate in data set [3]: CC1(C)C=Cc2c(ccc3c2OC[C@@H](c2ccc(O)cc2O)C3)O1
In words: GA glucuronidation by recombinant UGT1A8. It is filed as in vitro ADME, human. The following applies: other: UGT1A8, M2 formation, substrate inhibition model; pH 7.4.

Substrate in data set [4]: CC1(C)C=Cc2c(ccc3c2OC[C@@H](c2ccc(O)cc2O)C3)O1
In words: GA glucuronidation kinetics by recombinant UGT1A1. It is filed as in vitro ADME, human. The following applies: Michaelis–Menten, pH 7.4.

Substrate in data set [5]: CC1(C)C=Cc2c(ccc3c2OC[C@@H](c2ccc(O)cc2O)C3)O1
In words: GA glucuronidation kinetics by recombinant UGT1A3. Type of data set: in vitro ADME, human. The note with it: other: UGT1A3, M2 formation, Michaelis–Menten; pH 7.4.

Substrate in data set [6]: CC1(C)C=Cc2c(ccc3c2OC[C@@H](c2ccc(O)cc2O)C3)O1
Briefly: GA glucuronidation kinetics by recombinant UGT1A10. Type of data set: in vitro ADME, human. The note with it: other: UGT1A10, M2 formation, substrate inhibition model; pH 7.4.

Take `C#C[C@]1(O)CC[C@H]2[C@@H]3CCc4cc(O)ccc4[C@H]3CC[C@@]21C` [ethylestradiol]: in data set [1], the “rate of 3-O-glucuronidation by DLM relative to HLM” value is on record as 10 fold. For the molecule `OC(Cn1cncn1)(Cn1cncn1)c1ccc(F)cc1F` [fluconazole], the “remaining GA glucuronidation activity in HIM” value in data set [2] (inhibitor 1 mM (Fig. 6)) is “above 85 % of the control”.

As to `C=CCc1ccc(O)c(-c2cc(CC=C)ccc2O)c1` [magnolol], the “remaining GA glucuronidation activity in HIM” value in data set [2] (inhibitor 1 µM) is recorded as “above 85 % of the control”. As for `COc1c(C)c2c(c(O)c1C/C=C(\C)CCC(=O)O)C(=O)OC2` [mycophenolic acid], in the data set on UGT1A8, the Km is 1390 nM. Besides, the “remaining GA glucuronidation activity in HIM” value in data set [2] (inhibitor 10 µM) is reported as 28 % of the control. For the molecule `Cc1cn(-c2cc(NC(=O)c3ccc(C)c(Nc4nccc(-c5cccnc5)n4)c3)cc(C(F)(F)F)c2)cn1` [nilotinib], the “remaining GA glucuronidation activity in HIM” value in data set [2] (inhibitor 1 µM) was “above 85 % of the control”.

B1: recombinant human UGT1A8 (Homo sapiens) (protein)
chain: GKLLVVPMDGSHWFTMQSVVEKLILRGHEVVVVMPEVSWQLGKSLNCTVKTYSTSYTLEDLDREFMDFADAQWKAQVRSLFSLFLSSSNGFFNLFFSHCRSLFNDRKLVEYLKESSFDAVFLDPFDACGLIVAKYFSLPSVVFARGIACHYLEEGAQCPAPLSYVPRILLGFSDAMTFKERVRNHIMHLEEHLFCQYFSKNALEIASEILQTPVTAYDLYSHTSIWLLRTDFVLDYPKPVMPNMIFIGGINCHQGKPLPMEFEAYINASGEHGIVVFSLGSMVSEIPEKKAMAIADALGKIPQTVLWRYTGTRPSNLANNTILVKWLPQNDLLGHPMTRAFITHAGSHGVYESICNGVPMVMMPLFGDQMDNAKRMETKGAGVTLNVLEMTSEDLENALKAVINDKSYKENIMRLSSLHKDRPVEPLDLAVFWVEFVMRHKGAPHLRPAAHDLTWYQYHSLDVIGFLLAVVLTVAFITFKCCAYGYRKCLGKKGRVKKAHKSKTH
As for B1, in data set [3], the Michaelis-Menten constant (Km) amounted to 64 ± 9 µM and the Vmax is recorded as 11 ± 3 nmol/min/mg.

B2: recombinant human UGT1A1 (Homo sapiens) (protein)
chain: HAGKILLIPVDGSHWLSMLGAIQQLQQRGHEIVVLAPDASLYIRDGAFYTLKTYPVPFQREDVKESFVSLGHNVFENDSFLQRVIKTYKKIKKDSAMLLSGCSHLLHNKELMASLAESSFDVMLTDPFLPCSPIVAQYLSLPTVFFLHALPCSLEFEATQCPNPFSYVPRPLSSHSDHMTFLQRVKNMLIAFSQNFLCDVVYSPYATLASEFLQREVTVQDLLSSASVWLFRSDFVKDYPRPIMPNMVFVGGINCLHQNPLSQEFEAYINASGEHGIVVFSLGSMVSEIPEKKAMAIADALGKIPQTVLWRYTGTRPSNLANNTILVKWLPQNDLLGHPMTRAFITHAGSHGVYESICNGVPMVMMPLFGDQMDNAKRMETKGAGVTLNVLEMTSEDLENALKAVINDKSYKENIMRLSSLHKDRPVEPLDLAVFWVEFVMRHKGAPHLRPAAHDLTWYQYHSLDVIGFLLAVVLTVAFITFKCCAYGYRKCLGKKGRVKKAHKSKTH
In the case of B2, in data set [4] (other: UGT1A1, M1 formation), the Michaelis constant (Km) came to 7.6 ± 1.8 µM and the maximal velocity (Vmax) was 0.17 ± 0.01 nmol/min/mg. Moreover, in data set [4] (other: UGT1A1, M2 formation), the Km came to 24 ± 14 µM and the Vmax was found to be 0.11 ± 0.03 nmol/min/mg.

B3: recombinant human UGT1A3 (Homo sapiens) (protein)
chain: GKVLVVPIDGSHWLSMREVLRELHARGHQAVVLTPEVNMHIKEENFFTLTTYAISWTQDEFDRHVLGHTQLYFETEHFLKKFFRSMAMLNNMSLVYHRSCVELLHNEALIRHLNATSFDVVLTDPVNLCAAVLAKYLSIPTVFFLRNIPCDLDFKGTQCPNPSSYIPRLLTTNSDHMTFMQRVKNMLYPLALSYICHAFSAPYASLASELFQREVSVVDILSHASVWLFRGDFVMDYPRPIMPNMVFIGGINCANRKPLSQEFEAYINASGEHGIVVFSLGSMVSEIPEKKAMAIADALGKIPQTVLWRYTGTRPSNLANNTILVKWLPQNDLLGHPMTRAFITHAGSHGVYESICNGVPMVMMPLFGDQMDNAKRMETKGAGVTLNVLEMTSEDLENALKAVINDKSYKENIMRLSSLHKDRPVEPLDLAVFWVEFVMRHKGAPHLRPAAHDLTWYQYHSLDVIGFLLAVVLTVAFITFKCCAYGYRKCLGKKGRVKKAHKSKTH
For B3, in data set [5], the Km stood at 11 ± 4 µM and the Vmax came to 0.32 ± 0.06 nmol/min/mg.

B4: recombinant human UGT1A10 (Homo sapiens) (protein)
chain: GKLLVVPMDGSHWFTMQSVVEKLILRGHEVVVVMPEVSWQLERSLNCTVKTYSTSYTLEDQNREFMVFAHAQWKAQAQSIFSLLMSSSSGFLDLFFSHCRSLFNDRKLVEYLKESSFDAVFLDPFDTCGLIVAKYFSLPSVVFTRGIFCHHLEEGAQCPAPLSYVPNDLLGFSDAMTFKERVWNHIVHLEDHLFCQYLFRNALEIASEILQTPVTAYDLYSHTSIWLLRTDFVLDYPKPVMPNMIFIGGINCHQGKPLPMEFEAYINASGEHGIVVFSLGSMVSEIPEKKAMAIADALGKIPQTVLWRYTGTRPSNLANNTILVKWLPQNDLLGHPMTRAFITHAGSHGVYESICNGVPMVMMPLFGDQMDNAKRMETKGAGVTLNVLEMTSEDLENALKAVINDKSYKENIMRLSSLHKDRPVEPLDLAVFWVEFVMRHKGAPHLRPAAHDLTWYQYHSLDVIGFLLAVVLTVAFITFKCCAYGYRKCLGKKGRVKKAHKSKTH
Turning to B4, in data set [6], the Km was 28 ± 8 µM and the Vmax worked out at 0.5 ± 0.1 nmol/min/mg.
